Source: patent US8563513 (VAN ANDEL RESEARCH INSTITUTE, dated 2013)
Where no end group is shown, it is not given here.

T1: PTH1R in cell membranes, G protein-uncoupled conformation (R0) (UniProt Q03431 27-593, limits assumed)
T1 construct: whole, on cells; Cell membranes, not intact cells; R0 state studied by including GTPγS in the reactions; also called G protein-uncoupled receptor
T1 sequence (looked up): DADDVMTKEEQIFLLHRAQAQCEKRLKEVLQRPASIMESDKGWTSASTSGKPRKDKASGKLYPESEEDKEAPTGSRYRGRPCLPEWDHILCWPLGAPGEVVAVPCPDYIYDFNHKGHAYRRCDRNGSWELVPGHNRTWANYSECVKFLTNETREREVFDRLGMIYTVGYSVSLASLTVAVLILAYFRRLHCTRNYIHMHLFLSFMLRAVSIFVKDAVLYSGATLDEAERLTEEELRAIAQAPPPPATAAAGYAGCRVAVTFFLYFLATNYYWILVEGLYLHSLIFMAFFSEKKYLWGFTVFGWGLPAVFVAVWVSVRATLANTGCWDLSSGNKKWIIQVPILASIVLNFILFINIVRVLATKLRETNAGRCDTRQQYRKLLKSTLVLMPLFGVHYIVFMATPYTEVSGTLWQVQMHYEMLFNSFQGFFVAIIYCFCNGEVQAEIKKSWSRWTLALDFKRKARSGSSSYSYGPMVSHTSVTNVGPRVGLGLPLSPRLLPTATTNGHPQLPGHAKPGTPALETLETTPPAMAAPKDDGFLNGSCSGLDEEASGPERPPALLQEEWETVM

T2: MBP-PTH1R ECD-(His)6 fusion protein (UniProt Q03431 29-187)
T2 construct: range 29-187; Expressed in E. coli, disulfide shuffled in vitro; also called MBP-PTH1R ECD-H6; MBP-PTH1R ECD fusion protein
T2 sequence: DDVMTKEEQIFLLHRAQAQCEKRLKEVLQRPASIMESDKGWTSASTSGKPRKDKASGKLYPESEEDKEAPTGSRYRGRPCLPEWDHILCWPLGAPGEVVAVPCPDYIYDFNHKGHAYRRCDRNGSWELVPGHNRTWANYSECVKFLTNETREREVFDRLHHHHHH

T3: hPTH1R transiently expressed in COS-1 cells (human, UniProt Q03431 27-593)
T3 sequence (looked up): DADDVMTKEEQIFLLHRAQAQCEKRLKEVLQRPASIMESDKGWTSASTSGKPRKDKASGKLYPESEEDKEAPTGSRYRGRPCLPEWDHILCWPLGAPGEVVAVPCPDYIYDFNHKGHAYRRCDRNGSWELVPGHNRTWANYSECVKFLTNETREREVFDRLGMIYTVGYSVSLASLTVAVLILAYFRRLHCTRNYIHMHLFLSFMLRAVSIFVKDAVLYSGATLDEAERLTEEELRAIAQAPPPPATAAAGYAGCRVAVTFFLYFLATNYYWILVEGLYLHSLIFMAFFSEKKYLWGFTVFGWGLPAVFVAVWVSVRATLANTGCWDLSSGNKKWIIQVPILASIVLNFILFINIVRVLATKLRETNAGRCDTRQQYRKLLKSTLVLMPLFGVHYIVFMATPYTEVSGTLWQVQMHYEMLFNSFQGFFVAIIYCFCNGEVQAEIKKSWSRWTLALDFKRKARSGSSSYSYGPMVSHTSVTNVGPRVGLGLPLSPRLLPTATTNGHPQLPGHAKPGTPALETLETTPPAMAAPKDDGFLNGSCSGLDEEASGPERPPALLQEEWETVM


What was measured:
[1] = target: T4, PTH1R in cell membranes, G protein-coupled conformation (RG) (UniProt Q03431 27-593); test: competition binding, PTH1R in cell membranes, RG state (dominant negative Gαs), n = 3
T4 construct: whole, on cells; Cell membranes, not intact cells; RG state studied by co-expressing the receptor with dominant negative Gαs; also called G protein-coupled receptor

[2] = target: T1, PTH1R in cell membranes, G …; test: competition binding, PTH1R in cell membranes, R0 state (GTPγS), n = 3
[3] = target: T1, PTH1R in cell membranes, G …; test: ratio of IC50 at R0 to IC50 at RG, cell membranes
[4] = target: T2, MBP-PTH1R ECD-(His)6 fusion protein; test: AlphaScreen competition; competitor titrated against biotin-PTH(7-34)NH2 (23 nM) on MBP-PTH1R ECD (23 nM) [panel A]
Experimental: (§1) ECD-peptide binding assays. The binding of peptides to the MBP-PTH1R ECD-H6 fusion protein was assessed using an AlphaScreen assay (Perkin-Elmer). […] The pre-coupling reactions were mixed, un-labeled competitor peptides were added as indicated, and the reactions were incubated 4 to 5 hrs to reach equilibrium. Photon counts were recorded in 384-well optiplates using an Envision 2104 plate reader (Perkin-Elmer). Prism 5.0 software (GraphPad Software, San Diego) was used to fit the data to a fixed-slope dose-response inhibition equation for determination of IC50 values. Real-time analysis of the binding of peptides to the isolated PTH1R ECD using the Octet Red system (ForteBio) was performed as described in below.

[5] = target: T2, MBP-PTH1R ECD-(His)6 fusion protein; test: AlphaScreen competition against biotin-PTH(7-34)NH2 (23 nM) for MBP-PTH1R ECD-H6 (23 nM)
Experimental: as §1

[6] = target: T2, MBP-PTH1R ECD-(His)6 fusion protein; test: AlphaScreen competition; competitor titrated against biotin-PTH(7-34)NH2 (23 nM) on MBP-PTH1R ECD (23 nM) [panel B]
Experimental: as §1

[7] = target: T3, hPTH1R transiently expressed in COS-1 …; test: cell-based or functional assay
[8] = target: T2, MBP-PTH1R ECD-(His)6 fusion protein; test: AlphaScreen single point competition; peptide 20 µM against biotin-PTH(7-34)NH2 (23 nM) on MBP-PTH1R-ECD (23 nM) [panel B]
Experimental: as §1

Binder | IC50 [1] [nM] | IC50 Log M [1] [Log M] | IC50 [2] [nM] | IC50 Log M [2] [Log M] | RO/RG [3] [fold] | IC50 (read off the curve) [4] [nM] | IC50 [5] [nM] | IC50 (read off the curve) [6] [µM] | EC50, cAMP accumulation dose-response [7] [pM] | maximal cAMP level relative to wt peptide [7] [%] | binding result [8]
AVSEHQLLHDKGKSIQDLRRRFWLHHKLAEVHTA-NH2 [PTHrP(1-34)NH2 [F23′W/L27′K/I28′L/I31′V]] | 0.07 | -10.1 | 41 | -7.4 | 586 |  |  |  |  |  | 
GKHLNSMERVEWLRKKLQDVHNF-NH2 [PTH(12-34)NH2] |  |  |  |  |  | ~800 | ~1000 |  |  |  | 
GKSIQDLRRRFFLHHLIAEIHTA-OH (Free C-terminal carboxylic acid) [PTHrP(12-34)OH] |  |  |  |  |  |  | ~2000 | ~2 |  |  | 
SVSEIQLMHNLGKHLNSMERVEWLRKLLQDIHNF-NH2 [PTH(1-34)NH2 [K27L/V31I]] | 0.68 | -9.3 | 25 | -7.6 | 36.8 |  |  |  |  |  | 
SVSEIQLMHNLGKHLNSMERVEFLRKKLQDVHNF-NH2 [PTH(1-34)NH2 [W23F]] | 0.23 | -9.7 | 13.5 | -7.9 | 59 |  |  |  |  |  | 
SVSEIQLMHNLGKHLNSMERVEWLRKLLQDVHNF-NH2 (also called 07-12-12-07-SBSL) [PTH(1-34)[K27L]NH2] | 0.54 | -9.3 | 6.4 | -8.2 | 11.9 |  |  |  |  |  | 
SVSEIQLMHNLGKHLNSMERVEWLRKKLQDIHNF-NH2 [PTH(1-34)NH2 [V31I]] | 0.31 | -9.6 | 34 | -7.5 | 110 |  |  |  |  |  | 
SVSEIQLMHNLGKHLNSMERVEWLRKKIQDVHNF-NH2 [PTH(1-34)NH2 [L28I]] | 0.1 | -10 | 4.5 | -8.4 | 45 |  |  |  |  |  | 
SVSEIQLMHNLGKHLNSMERVEWLRKKIQDIHNF-NH2 [PTH(1-34)NH2 [L28I/V31I]] | 0.31 | -9.6 | 42 | -7.4 | 135 |  |  |  |  |  | 
GKSIQDLRRRFFLHHLIAEIHTA-NH2 (also called C-terminally amidated 12-34 fragment of PTHrP) [PTHrP(12-34)NH2] |  |  |  |  |  |  | ~2000 | ~1 |  |  | 

Further lines, results first:

IC50 [1] [nM] | IC50 Log M [1] [Log M] | IC50 [2] [nM] | IC50 Log M [2] [Log M] | RO/RG [3] [fold] | IC50 (read off the curve) [4] [nM] | IC50 [5] [nM] | IC50 (read off the curve) [6] [µM] | EC50, cAMP accumulation dose-response [7] [pM] | maximal cAMP level relative to wt peptide [7] [%] | binding result [8] | Binder
0.2 | -9.7 | 38 | -7.4 | 190 |  |  |  |  |  |  | SVSEIQLMHNLGKHLNSMERVEFLRKKIQDVHNF-NH2 [PTH(1-34)NH2 [W23F/L28I]]
0.78 | -9.2 | 53 | -7.3 | 68 |  |  |  |  |  |  | SVSEIQLMHNLGKHLNSMERVEFLRKLIQDIHNF-NH2 [PTH(1-34)NH2 [W23F/K27L/L28I/V31I]]
0.21 | -9.7 | 81 | -7.1 | 386 |  |  |  | 41.5 | ~80 |  | SVSEIQLMHNLGKHLNSMERVEFLRKKLQDIHNF-NH2 (also called PTH(W23′F/V31′I)) [PTH(1-34)NH2 [W23′F/V31′I]]
0.33 | -9.6 | 8.7 | -8.1 | 26.4 |  |  |  |  |  |  | SVSEIQLMHNLGKHLNSMERVEFLRKLLQDVHNF-NH2 [PTH(1-34)NH2 [W23F/K27L]]
 |  |  |  |  |  |  |  |  |  | binds | GKSIQDLRRRFFLHHKIAEIHTA-NH2 (Hybrid PTH/PTHrP peptide in the PTHrP(12-34)NH2 scaffold) [PTHrP(12-34)NH2 [L27′K]]
 |  |  |  |  |  |  |  |  |  | binds | GKSIQDLRRRFFLHHKIAEVHTA-NH2 (Hybrid PTH/PTHrP peptide in the PTHrP(12-34)NH2 scaffold) [PTHrP(12-34)NH2 [L27′K/I31′V]]
